pEC50: −log10 of the molar value. Where no end group is shown, it is not given here.
Biological target: T1, hCCR8 (Homo sapiens, UniProt P51685)
T1 construct: expressed in transfected cells
Test: Flow cytometry binding of VHH-Fc fusion antibodies to hCCR8 on stably transfected HEK293 cells
Conditions: Table 12; for pEC50: VHH-2 CDR alanine mutants as human Fc fusions, HEK293 hCCR8; for % Bmax: normalized to wild type VHH-2-Fc
Experimental: VHH-Fc fusion antibodies were evaluated for their ability to bind to hCCR8 on stably transfected HEK293 cells by means of flow cytometry. Cells were incubated with different concentrations of the bivalent VHH-Fc fusions for 60 minutes at 4° C., followed by two washes with FACS buffer, followed by 30 minutes incubation at 4° C. with the Zenon R-Phycoerythrin Anti-human IgG (ThermoFisher Scientific, #Z-25455), and two additional washing steps. Data were plotted and fit using GraphPad Prism software. EC50 and Bmax values individual antibodies were calculated from the resulting dose-response curves. Bivalent VHH-Fc fusions (Seq ID NOs: 31, 33, and 87-103) of 19 different VHH domains (SEQ ID NOs: 27, 28, and 70-86) were tested for cell binding and results are shown in Table 7. […]
VHH-Fc fusion DNA constructs were then generated comprising encoding humanized VHH sequences (SEQ ID NOs: 106-111) fused in frame to the human IgG1 (SEQ ID NO: 34) directly to the short hinge sequence in the pFuse expression vector, and were expressed, purified and analyzed for binding to HEK293 cells expressing human CCR8 as in Example 5. Binding curves for VHH-Fc antibodies comprised of parental VHH-1 and the humanized VHH derivatives VHH-1.2-Fc and VHH-1.3-Fc are shown in FIG. 9A. Binding curves for VHH-Fc antibodies comprised of parental VHH-2 and the humanized VHH derivatives VHH-2-Fc, VHH-2.2-Fc and VHH-2.3-Fc, are shown in FIG. 9B. Cell binding EC50 values, normalized Bmax (relative to respective parental clone) data and humanizing mutations are shown in Table 10 below.
Approaches such as in vitro affinity maturation and rational mutagenesis can be performed to regain binding affinity and/or stability lost through humanization. In vitro affinity maturation generally involves building and amino acid substitution library where amino acid positions are varied across the CDRs and/or framework at a defined set of positions using sets of amino acids chosen to introduce new chemical diversity. The paratope residues within the CDR regions are of course key to antigen binding and care must be taken not to disrupt important structures while attempting to evolve improve antibody behavior. One approach to identify positions that are important to the maintenance of binding properties is to perform paratope mapping using single scanning alanine substitutions across antibody CDR regions. In this approach, residues that are critical to the maintenance of antibody binding to the antigen can be identified and at the same time permissive sites can be identified where it may be possible to make substitutions of other amino acids desirable for subsequent affinity maturation library construction. Site directed mutagenesis was used to make single alanine substitutions at each residue in the CDRs of VHH-1 (SEQ ID NO: 27) and VHH-2 (SEQ ID NO: 28). Changes in VHH-1 CDR amino acids to alanine are indicated in Table 11 (SEQ ID NOs: 112-137) and for VHH-2 CDRs (SEQ ID NO: 138-162) in Table 12. Mutation positions and residue changes to alanine with respect to the in the parental VHH sequences are referenced by their IMGT position. VHH domains containing the indicated modified CDR-1, CDR-2 or CDR-3 domains were used to construct Fc fusions by direct grafting to the short hinge of the human Fc domain (SEQ ID NO: 34). VHH-Fc constructs were expressed, purified and analyzed for binding to HEK293 cells expressing hCCR8 and the results are reported in Table 11 and Table 12. EC50 values are reported for each Fc fusion antibody containing a modified CDR, along with its respective Bmax value normalized to the to the matched wild type VHH-1-Fc or VHH-2-Fc fusion antibody.

T1 sequence (P51685 whole entry): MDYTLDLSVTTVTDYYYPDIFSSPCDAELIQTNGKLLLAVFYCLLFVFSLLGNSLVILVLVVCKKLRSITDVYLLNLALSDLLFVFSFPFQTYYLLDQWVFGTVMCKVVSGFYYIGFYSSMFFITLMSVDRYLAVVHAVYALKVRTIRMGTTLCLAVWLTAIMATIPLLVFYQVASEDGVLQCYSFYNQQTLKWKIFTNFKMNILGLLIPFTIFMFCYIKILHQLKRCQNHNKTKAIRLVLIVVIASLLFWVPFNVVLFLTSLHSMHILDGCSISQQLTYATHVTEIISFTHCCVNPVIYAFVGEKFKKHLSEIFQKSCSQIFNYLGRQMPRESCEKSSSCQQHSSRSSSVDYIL

Row | Substance | pEC50 | % Bmax [%]
1 | VHH-2 S30A: VHH-2 alanine mutant, CDR1 GSTATINR, fused to human IgG1 Fc (also: CDR1 of VHH-2 in VHH fused to human IgG1 Fc) | 8.79 | 66
2 | VHH-2 Y117A: VHH-2 alanine mutant, CDR3 QARMAMGSSQVVA, fused to human IgG1 Fc (also: CDR3 of VHH-2 in VHH fused to human IgG1 Fc) | 9.07 | 76
3 | VHH-2 S58A: VHH-2 alanine mutant, CDR2 TSARTSP, fused to human IgG1 Fc (also: CDR2 of VHH-2 in VHH fused to human IgG1 Fc) | 8.99 | 65
4 | VHH-2 S57A: VHH-2 alanine mutant, CDR2 TASRTSP, fused to human IgG1 Fc (also: CDR2 of VHH-2 in VHH fused to human IgG1 Fc) | 8.99 | 69
5 | VHH-2 T59A: VHH-2 alanine mutant, CDR2 TSSRASP, fused to human IgG1 Fc | 8.83 | 74
6 | VHH-2 V115A: VHH-2 alanine mutant, CDR3 QARMAMGSSQAVY, fused to human IgG1 Fc (also: CDR3 of VHH-2 in VHH fused to human IgG1 Fc) | 8.87 | 11
7 | VHH-2 S63A: VHH-2 alanine mutant, CDR2 TSSRTAP, fused to human IgG1 Fc (also: CDR2 of VHH-2 in VHH fused to human IgG1 Fc) | 8.97 | 70

More lines, in order of rising pEC50, values ahead:

Row | pEC50 | % Bmax [%] | Substance
8 | 8.79 | 68 | VHH-2 S28A: VHH-2 alanine mutant, CDR1 GATSTINR, fused to human IgG1 Fc (also: CDR1 of VHH-2 in VHH fused to human IgG1 Fc)
9 | 8.84 | 65 | VHH-2 T29A: VHH-2 alanine mutant, CDR1 GSASTINR, fused to human IgG1 Fc (also: CDR1 of VHH-2 in VHH fused to human IgG1 Fc)
10 | 9.05 | 48 | VHH-2 S113A: VHH-2 alanine mutant, CDR3 QARMAMGSAQVVY, fused to human IgG1 Fc (also: CDR3 of VHH-2 in VHH fused to human IgG1 Fc)
11 | 9.06 | 65 | VHH-2 T35A: VHH-2 alanine mutant, CDR1 GSTSAINR, fused to human IgG1 Fc (also: CDR1 of VHH-2 in VHH fused to human IgG1 Fc)
12 | 9.08 | 72 | VHH-2 V116A: VHH-2 alanine mutant, CDR3 QARMAMGSSQVAY, fused to human IgG1 Fc (also: CDR3 of VHH-2 in VHH fused to human IgG1 Fc)

Source: patent US20250092146A1, “ANTI-CCR8 ANTIBODIES, CONJUGATES, AND USES THEREOF” (Abilita Bio, Inc., priority 2023, published 2025)
